Test [1] concerns the target M1 muscarinic acetylcholine receptor, wild type (M1-WT), transfected in HEK293T cells (UniProt P12657).
The target in test [2] is phosphorylation-deficient M1 muscarinic acetylcholine receptor (M1-PD), transfected in HEK293T cells (UniProt P12657).

As for “Gq (Gαq, BRET biosensor of Gq activation in HEK cells) (from UniProt P50148 1-359) (natural protein)”, the Emax of ACh-stimulated Gq activation (BRET biosensor, decrease in BRET, HEK cells) came out at 100 in test [1] and 108 in test [2].
In the case of “β-arrestin-2 (bystander BRET sensor in HEK293T cells) (from UniProt P32121 1-409) (natural protein)”, the Emax of ACh-stimulated β-arrestin-2 recruitment (bystander BRET: translocation of β-arrestin-2 to the cell membrane, HEK293T cells) was found to be 104 in test [1] and 40.7 in test [2].

For the origin of these results see paper PMC8685681.
